Results from publication PMC5663973.

Molecular target: DHR2 domain of human DOCK5 (residues I1212-L1642) (human)
Assay: SEC-SAXS; unbound DOCK5^DHR2 at 80 μM; BioSEC-3 column; 20 mM Tris pH 8.0, 150 mM NaCl, 0.5 mM EDTA; 295 K

stoichiometry N: 2
Substance: DHR2 domain of human DOCK5 (residues I1212-L1642) (domain or fragment)
